# Reference: publication PMC5380474 (Molecular microbiology, 2017)
# Like-named read-outs stand apart in the source and are kept apart here.
# B1: FLAG-tagged FlhA D170C/R185C (natural protein)
# chain: MANLVAMLRLPSNLKSTQWQILAGPILILLILSMMVLPLPAFILDLLFTFNIALSIMVLLVAMFTQRTLDFAAFPTILLFTTLLRLALNVASTRIILMEGHTGAAAAGKVVEAFGHFLVGGNFAIGIVVFIILVIINFMVITKGAGRIAEVGARFVLDGMPGKQMAIDACLNAGLIGEDEAKKRCSEVTQEADFYGSMDGASKFVRGDAIAGILIMVINVVGGLLVGVLQHGMSIGSAAESYTLLTIGDGLVAQIPALVISTAAGVIVTRVSTDQDVGEQMVGQLFSNPRVMLLAAAVLGLLGMVPGMPNLVFLLFTAALLGLAWWLRGREEKAPEEPQPVKMPENNSVVEATWNDVQLEDSLGMEVGYRLIPMVDFQQDGELLGRIRSIRKKFAQDMGFLPPVVHIRDNMDLQPARYRILMKGVEIGSGDAYPGRWLAINPGTAAGTLPGEKTVDPAFGLDAIWIESALKEQAQIQGFTVVEASTVVATHLNHLIGQFSAELFGRQEAQQLLDRVSQEMPKLTEDLVPGVVTLTTLHKVLQNLLAEKVPIRDMRTILETLAEHAPLQSDPHELTAVVRVALGRAITQQWFPGNEEVQVIGLDTALERLLLQALQGGGGLEPGLADRLLAQTQEALSRQEMLGAPPVLLVNHALRPLLSRFLRRSLPQLVVLSNLELSDNRHIRMTATIGGK
# Experiments:
# Assay in all cases: cross-linking
# [1] = target: the molecule itself
# [2] = target: the molecule itself; remark: listed apart in the source
# [3] = target: the molecule itself; remark: listed apart in the source
protein,measurement,setting,value
B1,stoichiometry N,[1],9
same,stoichiometry N,[2],5
same,stoichiometry N,[3],7
